Results: patent US20230103583A1 (NORTHWESTERN UNIVERSITY, published 2023)

Biological target: Tie2 receptor on HUVEC (human, UniProt Q02763 23-1124)
Assay: cell-based or functional assay

Tie2 receptor on HUVEC, sequence (Q02763 23-1124): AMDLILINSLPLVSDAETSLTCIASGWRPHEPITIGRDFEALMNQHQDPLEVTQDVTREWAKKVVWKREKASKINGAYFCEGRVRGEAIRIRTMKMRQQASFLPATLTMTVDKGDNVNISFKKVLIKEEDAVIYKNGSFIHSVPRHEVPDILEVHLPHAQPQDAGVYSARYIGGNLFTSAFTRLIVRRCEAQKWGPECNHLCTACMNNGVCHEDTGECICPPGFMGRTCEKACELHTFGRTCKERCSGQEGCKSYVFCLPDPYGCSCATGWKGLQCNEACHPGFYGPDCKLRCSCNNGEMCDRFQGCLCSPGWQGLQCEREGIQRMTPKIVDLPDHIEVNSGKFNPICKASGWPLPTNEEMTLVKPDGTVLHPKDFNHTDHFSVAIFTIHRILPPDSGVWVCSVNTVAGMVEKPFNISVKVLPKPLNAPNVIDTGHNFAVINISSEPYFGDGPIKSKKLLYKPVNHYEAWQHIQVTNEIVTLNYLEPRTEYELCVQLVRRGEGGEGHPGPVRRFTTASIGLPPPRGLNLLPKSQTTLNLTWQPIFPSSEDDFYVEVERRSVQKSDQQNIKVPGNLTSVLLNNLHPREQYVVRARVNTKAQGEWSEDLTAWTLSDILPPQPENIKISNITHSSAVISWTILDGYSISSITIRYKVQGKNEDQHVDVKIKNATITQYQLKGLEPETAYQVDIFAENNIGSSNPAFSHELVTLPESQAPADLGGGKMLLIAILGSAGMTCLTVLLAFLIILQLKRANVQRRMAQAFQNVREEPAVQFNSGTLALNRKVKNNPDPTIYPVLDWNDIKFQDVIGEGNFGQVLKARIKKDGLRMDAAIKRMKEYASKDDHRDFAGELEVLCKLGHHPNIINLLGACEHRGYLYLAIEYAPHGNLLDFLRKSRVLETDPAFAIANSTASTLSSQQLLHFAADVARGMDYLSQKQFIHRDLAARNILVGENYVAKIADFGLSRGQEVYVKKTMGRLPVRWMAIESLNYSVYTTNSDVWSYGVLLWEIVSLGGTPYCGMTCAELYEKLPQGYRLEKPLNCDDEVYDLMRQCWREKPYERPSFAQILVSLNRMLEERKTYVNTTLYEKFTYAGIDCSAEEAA

B1: ANG1-C4BP (ligand)
chain: KPFRDCADVYQAGFNKSGIYTIYINNMPEPKKVFCNMDVNGGGWTVIQHREDGSLDFQRGWKEYKMGFGNPSGEYWLGNEFIFAITSQRQYMLRIELMDWEGNRAYSQYDRFHIGNEKQNYRLYLKGHTGTAGKQSSLILHGADFSTKDADNDNCMCKCALMLTGGWWFDACGPSNLNGMFYTAGQNHGKLNGIKWHYFKGPSYSLRSTTMMIRPLDFGGGGSETPEGCEQVLTGKRLMQCLPNPEDVKMALEVYKLSLEIEQLELQRDSARQSTLDKELHHHHHH
- phospho-AKT (pAKT) EC50 in HUVEC treated for 20 minutes: 87 ng/mL
